In article PMC4901202, “Sld3-MCM Interaction Facilitated by Dbf4-Dependent Kinase Defines an Essential Step in Eukaryotic DNA Replication Initiation” (Frontiers in Microbiology, 2016):

Molecular target: T1, 6His-Sld3 (budding yeast, UniProt P53135 1-668)
T1 construct: Sld3, budding yeast; Tag end read from the printed order 6His-SLD3; also called pET28a-SLD3; source: E. coli BL21 (DE3) CodonPlus RIL, purified (Ni2+ columns); not shown: 6His, N-terminal, kept
T1 sequence (looked up): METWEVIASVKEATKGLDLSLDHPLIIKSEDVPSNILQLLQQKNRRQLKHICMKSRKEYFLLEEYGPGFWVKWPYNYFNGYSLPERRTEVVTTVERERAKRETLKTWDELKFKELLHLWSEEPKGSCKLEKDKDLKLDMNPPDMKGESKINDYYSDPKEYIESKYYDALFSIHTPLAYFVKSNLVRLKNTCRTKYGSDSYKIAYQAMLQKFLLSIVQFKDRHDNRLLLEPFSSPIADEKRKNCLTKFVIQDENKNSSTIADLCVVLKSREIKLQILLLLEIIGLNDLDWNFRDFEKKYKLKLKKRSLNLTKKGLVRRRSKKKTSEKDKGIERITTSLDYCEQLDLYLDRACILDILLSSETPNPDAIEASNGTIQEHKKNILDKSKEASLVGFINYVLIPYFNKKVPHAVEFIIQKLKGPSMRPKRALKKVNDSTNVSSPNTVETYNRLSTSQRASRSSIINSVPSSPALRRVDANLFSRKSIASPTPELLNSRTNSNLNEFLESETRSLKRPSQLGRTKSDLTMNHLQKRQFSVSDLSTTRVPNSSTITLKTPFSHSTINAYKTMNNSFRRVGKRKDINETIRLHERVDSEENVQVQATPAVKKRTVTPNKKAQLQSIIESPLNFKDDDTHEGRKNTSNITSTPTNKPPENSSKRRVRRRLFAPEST
Assay: pull-down; 2 μg 6His-Sld3 and 5 μg GST-Mcm6 or GST-Mcm2 with glutathione-Sepharose beads; 40 mM Tris-HCl pH 7.5, 100 mM NaCl, 0.1 mM EDTA, 10% glycerol, 0.1% Triton X-100, 1 mM DTT, 1 mg/ml BSA; 1 h at 4°C; immunoblots with anti-His and anti-GST
Settings: both partners purified

binding result: binds
B1: GST-Mcm2N (1–390) (domain or fragment, budding yeast, UniProt P29469 1-390, looked up)
chain: MSDNRRRRREEDDSDSENELPPSSPQQHFRGGMNPVSSPIGSPDMINPEGDDNEVDDVPDIDEVEEQMNEVDLMDDNMYEDYAADHNRDRYDPDQVDDREQQELSLSERRRIDAQLNERDRLLRNVAYIDDEDEEQEGAAQLDEMGLPVQRRRRRRQYEDLENSDDDLLSDMDIDPLREELTLESLSNVKANSYSEWITQPNVSRTIARELKSFLLEYTDETGRSVYGARIRTLGEMNSESLEVNYRHLAESKAILALFLAKCPEEMLKIFDLVAMEATELHYPDYARIHSEIHVRISDFPTIYSLRELRESNLSSLVRVTGVVTRRTGVFPQLKYVKFNCLKCGSILGPFFQDSNEEIRISFCTNCKSKGPFRVNGEKTVYRNYQRVTL
notes: Mcm2, budding yeast, residues 1-390; Tag end read from the printed order GST-mcm2(1–390); also called GST-Mcm2 (1–390); pGEX-4T -1-mcm2(1–390); source: E. coli BL21 (DE3) CodonPlus RIL, purified as previously described (Quan et al., 2015); not shown: GST, N-terminal, kept
